Where “and” joins values, the source holds several entries; their conditions need not be identical. Identical values can stand only once. Like-named read-outs stand apart in the source and are kept apart here.

Data on 16 molecules can be found in article PMC9207808 (ACS Chemical Biology, 2022).

The target of data set [1] is FLAG–Phd1-73 (PhdSTm antitoxin, His6 removed by thrombin) (Salmonella typhimurium). The data set is described as follows: SEC; HiLoad 16/600 Superdex 75pg, 4 C, Phd SEC buffer (0.025 M K2HPO4, 0.15 M NaCl, 5% glycerol, pH 8.0); mass from the manufacturer's calibration curves; last purification step. In general terms: Size exclusion chromatography separates by hydrodynamic size, large species first.

For data set [2], the target named is Doc1-122–His6 (DocSTm toxin) (Salmonella typhimurium). The data set is described as follows: SPR; Biacore S200; Doc-His6 captured on NTA chip; Phd1-73 protein as analyte, multi-cycle kinetics, eight concentrations 25 nM to 0.390625 nM, association 200 s, dissociation 1500 s; 22 C; 10 mM HEPES, 500 mM NaCl, 50 uM EDTA, 0.005% TWEEN 20, pH 8.0; kinetic 1:1 fit with constant RMAX. On the technique in general: Surface plasmon resonance follows binding to a sensor surface in real time, without labels.

For data set [3] the target is unchanged. Described as above. This is another data set of the same source.
Data set [4] has as its system DocH66Y (E. coli P1 Phage). The note with it: cited from earlier work. The source says: (§1) page 23: Table S5. […] Organism Complex Kd (nM) SPR Kd (nM) ITC Reference S. Typhimurium Doc-Phd1-73 0.061 ± 0.019 - This study S. Typhimurium Doc-Phd52-73 (peptide 1) 0.073 ± 0.018 - This study E. coli P1 Phage Doc-Phd1-73 350 - 5 E. coli P1 Phage DocH66Y-Phd1-73 1300 - 5 E. coli P1 Phage Doc-Phd51-73 - 240 5 E. coli P1 Phage DocH66Y-Phd52-73 - 1 6 S23

In another data set the test system is Doc (E. coli P1 Phage). The note with it: ref 5 (ESI), read-out: Kd (nM) ITC; cited from earlier work.
From the text: as §1

Data set [5] deals with Doc1-122–His6 (DocSTm toxin) (Salmonella typhimurium). The data set is described as follows: SPR; Biacore S200; Doc-His6 captured on a Series S NTA chip (200-400 RU); peptide as analyte, single-cycle kinetics, six concentrations (3-fold dilutions), 30 uL/min; 22 C; 10 mM HEPES, 500 mM NaCl, 50 uM EDTA, 0.005% TWEEN 20, pH 8.0; kinetic 1:1 fit.
For data set [6] the target is unchanged. The data set is described as above. The source holds these as a separate data set.
The target is the same in data set [7]. The description is as above. This is another data set of the same source.
Data set [8] has the same target. The description is as above. This is another data set of the same source.
For data set [9], the target named is Doc toxin of Salmonella enterica serovar Typhimurium (DocSTm) (Salmonella enterica serovar Typhimurium). The data set is described as follows: SPR; DocSTm immobilised on a Series S NTA chip (150 nM, 200-400 RU); analytes in single-cycle kinetics, typically six concentrations, kinetic 1:1 fit; 22 °C; 10 mM HEPES, 500 mM NaCl, 50 μM EDTA, 0.005% TWEEN 20, pH 8.0.

Data set [10] concerns the target T1, Doc toxin of Salmonella enterica serovar Typhimurium (DocSTm) (Salmonella enterica serovar Typhimurium, UniProt A0A1C9CWN5 1-126). The data set is described as follows: SPR; DocSTm immobilised on a Series S NTA chip; analytes in multicycle kinetics, kinetic and/or steady-state 1:1 fit (steady-state for peptide 14); 22 °C; 10 mM HEPES, 500 mM NaCl, 50 μM EDTA, 0.005% TWEEN 20, pH 8.0. Particulars: both partners purified.

The target in data set [11] is T1, Doc toxin of Salmonella enterica …. As to the kind of experiment: differential scanning fluorimetry; DocSTm 5 μM with SYPRO Orange, 25 to 95 °C; 50 μM PhdSTm or peptide 1 (Figure 2a); 20 mM K2HPO4, 50 mM (NH4)2SO4, pH 8.0; shift of the melting temperature of DocSTm. The note with it: both partners purified.
For the next data set, the target named is T2, Doc (Salmonella Typhimurium).
T2 chain: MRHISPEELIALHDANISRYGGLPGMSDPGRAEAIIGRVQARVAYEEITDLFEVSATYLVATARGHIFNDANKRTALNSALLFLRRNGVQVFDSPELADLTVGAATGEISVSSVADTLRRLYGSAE
The data set is described as follows: SPR.

The target of data set [12] is T1, Doc toxin of Salmonella enterica …. The data set is described as follows: SPR; DocSTm immobilised on a Series S NTA chip (150 nM, 200-400 RU); analytes in single-cycle kinetics, typically six concentrations, kinetic 1:1 fit; 22 °C; 10 mM HEPES, 500 mM NaCl, 50 μM EDTA, 0.005% TWEEN 20, pH 8.0. The note with it: both partners purified.

One may read the stoichiometry N as the number of molecules, sites or subunits per partner or assembly. A word on the koff: it is the rate constant with which the complex falls apart. A high value points to a short-lived complex. What is called kon is a measure of how fast the partners come together. Low readings indicate slow association, high ones fast association. As a reminder, the Kd is a measure of binding affinity in units of concentration. Molecule “FLAG–Phd1-73 (PhdSTm antitoxin, His6 removed by thrombin) (natural protein)” displayed a stoichiometry N in data set [1] of 2. In addition, in [2], the koff amounted to 2.9e-05 s⁻¹ and the on-rate (kon) was 473000 M⁻¹ s⁻¹. In [3], the Kd was 0.0507 nM and 0.0505 nM and 0.0883 nM; the off-rate constant (koff) is 3.02e-05 s⁻¹ and 2.2e-05 s⁻¹ and 3.42e-05 s⁻¹; the kon is 596000 M⁻¹ s⁻¹ and 436000 M⁻¹ s⁻¹ and 387000 M⁻¹ s⁻¹.
As to “Phd1-73 (E. coli P1 Phage): full-length Phd antitoxin from E. coli P1 phage, literature values”, the Kd in data set [4] (ref 5 (ESI), read-out: Kd (nM) SPR) was 1300 nM.
Consider “Phd51-73 (E. coli P1 Phage): Phd residues 51-73 of E. coli P1 phage, literature value (ALDAEFASLFDTLDSTNKELVNR; UniProt Q06253 51-73, looked up, fragment)”, for which the Kd in the data set with Doc (E. coli P1 Phage) was 240 nM.
With “Phd52-73 (E. coli P1 Phage): Phd residues 52-73 of E. coli P1 phage, literature value (LDAEFASLFDTLDSTNKELVNR; UniProt Q06253 52-73, looked up, fragment)”, in data set [4] (ref 6 (ESI), read-out: Kd (nM) ITC), the Kd is 1 nM.
Consider peptide 1 (PhdSTm52-73), for which, in data set [5], the kon is 1.1e+06 1/(M s) (2×) and 1.6e+06 1/(M s) and 1.3e+06 1/(M s). For the same molecule, in data set [6], the koff came out at 9.1e-05 s⁻¹ and the kon worked out at 1.25e+06 M⁻¹ s⁻¹.
peptide 12 (PhdSTm52-73-N65A): the kon in data set [7] was 1.3e+06 1/(M s) (2×) and 1.6e+06 1/(M s) and 1.4e+06 1/(M s). In [6], the Kd worked out at 0.145 nM, the koff was 0.000203 s⁻¹ and the kon is 1.4e+06 M⁻¹ s⁻¹.
For peptide 19 (PhdSTm52-73-K73A), in data set [8], the kon was 1.08e+06 M⁻¹ s⁻¹ and 2.12e+06 M⁻¹ s⁻¹ and 1.28e+06 M⁻¹ s⁻¹. In data set [6], the Kd came to 0.087 nM, the koff was determined as 0.000126 s⁻¹ and the kon amounted to 1.44e+06 M⁻¹ s⁻¹.
On to peptide 22 (Phd 55-71), for which the dissociation constant Kd in [9] is 0.347 nM.
In the case of peptide 23 (Phd 56-70), in data set [9], the Kd is 1.98 nM.

B1: Phd antitoxin of Salmonella enterica serovar Typhimurium, full-length (PhdSTm) (natural protein)
chain: MFMRTVNYSEARQNLAEVLESAVTGGPVTITRRGHKSAVIISAEEFERYQTARMDDEFAAIMAVHGNELRELADK
notes: also called PhdSTm 1-73; full-length Phd antitoxin
B1: the “half-life of the complex” value in data set [10] was about 7 h. Further, the “ΔTm of DocSTm (DSF)” value in data set [11] turned out to be 31.3 ± 0.9 °C.
Regarding AALDAEFASLFDTLDSTNKELVNR [Phd peptide 1 neutralization domain], binding in the data set with Doc was put at a Kd of 0.073 nM.
Ac-WMDDEFAAIMAVHGNELRELA-OH [peptide 20 (C-terminally truncated analogue of peptide 1)]: the “fold loss in Kd against peptide 1” value in data set [12] was about 5 fold.
Take EFASLFDTLDSTNKELV [Phd peptide 22 55-71]: in the data set with Doc, the Kd is 0.347 nM.

B2: peptide 1 (Phd 52-73, Ac-WMDDEFAAIMAVHGNELRELADK-OH) (peptide)
peptide: Ac-WMDDEFAAIMAVHGNELRELADK-OH
notes: tryptophan introduced at the N-terminus for spectrophotometric quantification; not part of Phd; also called wild-type peptide 1; C-terminal Phd peptide; source: synthetic peptide
Regarding B2, the Kd in [12] was 0.073 nM. For the same molecule, the “ΔTm of DocSTm (DSF)” value in [11] was determined as 28.8 ± 0.9 °C.
Take FASLFDTLDSTNKEL [Phd peptide 23 56-70]: binding in the data set with Doc was put at a Kd of 1.98 nM.
Regarding Ac-EFAAIMAVHGNELRELADK-OH [peptide 21 (N-terminally truncated analogue of peptide 1)], the “fold loss in Kd against peptide 1” value in data set [12] is about 5 fold.
